Source: PMC7409020 (2020)
Square brackets hold non-standard residues; d marks the D form. Ends that are not written are not given here.

Biological target: recombinant N-terminal His6-tagged human FABP3 (human, NT-650-NHS red amine-reactive fluorescent dye (in the MST experiments only))
Experiment: MST

recombinant N-terminal His6-tagged human FABP3 (human, NT-650-NHS red amine-reactive fluorescent dye (in the MST experiments only)), sequence (P05413 whole entry): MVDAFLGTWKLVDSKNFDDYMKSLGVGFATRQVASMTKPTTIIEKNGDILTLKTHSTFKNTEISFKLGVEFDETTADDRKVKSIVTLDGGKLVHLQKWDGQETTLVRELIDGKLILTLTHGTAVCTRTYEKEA

| Binder | Kd [nM] |
| --- | --- |
| ACGLSGAGVA-NH2 [A-[Ala^6]CooP] | 190 |
| ACGLAGLGVA-NH2 [A-[Ala^4]CooP] | 110 |
| ACALSGLGVA-NH2 [A-[Ala^2]CooP] | 90 |

Further binders by falling Kd, results first:

| Kd [nM] | Binder |
| --- | --- |
| 24000 | [dA][dV]G[dL]G[dS][dL]G[dC][dA]-NH2 (N-terminus assumed; SMILES CC(C)C[C@@H](NC(=O)CNC(=O)[C@H](NC(=O)[C@@H](C)N)C(C)C)C(=O)NCC(=O)N[C@H](CO)C(=O)N[C@H](CC(C)C)C(=O)NCC(=O)N[C@H](CS)C(=O)N[C@H](C)C(N)=O) [RI-A-CooP] |
| 250 | ACGASGLGVA-NH2 [A-[Ala^3]CooP] |
| 120 | ACGLSGLGAA-NH2 [A-[Ala^8]CooP] |
